Experiments:
[1] = target: Bax_(C87(C62S, C126S)) labeled with maleimide gem-diethyl nitroxide (MAG) (human) (UniProt Q07812); assay: DEER (double electron-electron resonance, EPR); inactive Bax in buffer (aqueous solution) with 50% v/v glycerol-d8, flash frozen; Q-band 4-pulse DEER, NO-NO at 50 K, Gd-Gd at 10 K; one labeled variant per sample
[2] = target: Bax_(C87(C62S, C126S)) labeled with maleimide Gd-DOTA (human) (UniProt Q07812); assay: as above
[3] = target: T1, Bax wild type labeled with iodacetamide gem-diethyl nitroxide (IAG) (human, UniProt Q07812 1-192, IAG (iodacetamide gem-diethyl nitroxide) spin label on the native cysteines 62 and 126); assay: DEER (double electron-electron resonance, EPR); two Bax variants mixed before oligomerization (3-fold excess of unlabeled BaxWT or of Bax_(C87Gd) over nitroxide-labeled BaxWT), activated with cBid and MOM-like liposomes, pellet fraction; NO-NO (50 K), NO-Gd (10 K) and Gd-Gd (10 K) DEER channels on the same sample; conditions: both partners purified
T1 construct: Bax, human, full length; two native cysteines at positions 62 and 126; also called Bax_(WTIAG); source: E. coli (BL21/RIPL/pTYB1-Bax), purified; labeled with IAG

[4] = target: T2, Bax wild type labeled with MTSL at cysteines 62 and 126 (human, UniProt Q07812 1-192, MTSL nitroxide spin label (R1) on the native cysteines 62 and 126); assay: as above; conditions: both partners purified
T2 construct: Bax, human, full length; two native cysteines at positions 62 and 126; also called Bax_(WTR1); source: E. coli (BL21/RIPL/pTYB1-Bax), purified; labeled with MTSL

| fraction of dimeric protein in solution [1] [%] | fraction of dimeric protein in solution [2] [%] | binding result [3] | binding result [4] | Molecule |
| --- | --- | --- | --- | --- |
| < 10 | – | – | – | Bax_(C87(C62S, C126S)) labeled with maleimide gem-diethyl nitroxide (MAG) (from UniProt Q07812 1-192) (natural protein) |
| – | < 10 | binds | binds | Bax_(C87(C62S, C126S)) labeled with maleimide Gd-DOTA (natural protein, human, UniProt Q07812 1-192, looked up, maleimide Gd-DOTA spin label on cysteine 87, Bax, human, full length, single surface-exposed cysteine at position 87; also called Bax_(C87Gd); source: E. coli, purified in the same way as the wild type protein; labeled with maleimide Gd-DOTA) MDGSGEQPRGGGPTSSEQIMKTGALLLQGFIQDRAGRMGGEAPELALDPVPQDASTKKLSESLKRIGDELDSNMELQRMIAAVDTDCPREVFFRVAADMFSDGNFNWGRVVALFYFASKLVLKALSTKVPELIRTIMGWTLDFLRERLLGWIQDQGGWDGLLSYFGTPTWQTVTIFVAGVLTASLTIWKKMG |

Reference: PMC6737250, “A new perspective on membrane-embedded Bax oligomers using DEER and bioresistant orthogonal spin labels” (Scientific Reports, 2019)
